What was measured:
Experiment in all cases: flow cytometry on transfected HEK293 cells
[1] = molecular target: T1, mouse ROBO4 (pCI-mROBO4-transfected HEK293 cells) (mouse, UniProt Q8C310 28-1012)
T1 sequence: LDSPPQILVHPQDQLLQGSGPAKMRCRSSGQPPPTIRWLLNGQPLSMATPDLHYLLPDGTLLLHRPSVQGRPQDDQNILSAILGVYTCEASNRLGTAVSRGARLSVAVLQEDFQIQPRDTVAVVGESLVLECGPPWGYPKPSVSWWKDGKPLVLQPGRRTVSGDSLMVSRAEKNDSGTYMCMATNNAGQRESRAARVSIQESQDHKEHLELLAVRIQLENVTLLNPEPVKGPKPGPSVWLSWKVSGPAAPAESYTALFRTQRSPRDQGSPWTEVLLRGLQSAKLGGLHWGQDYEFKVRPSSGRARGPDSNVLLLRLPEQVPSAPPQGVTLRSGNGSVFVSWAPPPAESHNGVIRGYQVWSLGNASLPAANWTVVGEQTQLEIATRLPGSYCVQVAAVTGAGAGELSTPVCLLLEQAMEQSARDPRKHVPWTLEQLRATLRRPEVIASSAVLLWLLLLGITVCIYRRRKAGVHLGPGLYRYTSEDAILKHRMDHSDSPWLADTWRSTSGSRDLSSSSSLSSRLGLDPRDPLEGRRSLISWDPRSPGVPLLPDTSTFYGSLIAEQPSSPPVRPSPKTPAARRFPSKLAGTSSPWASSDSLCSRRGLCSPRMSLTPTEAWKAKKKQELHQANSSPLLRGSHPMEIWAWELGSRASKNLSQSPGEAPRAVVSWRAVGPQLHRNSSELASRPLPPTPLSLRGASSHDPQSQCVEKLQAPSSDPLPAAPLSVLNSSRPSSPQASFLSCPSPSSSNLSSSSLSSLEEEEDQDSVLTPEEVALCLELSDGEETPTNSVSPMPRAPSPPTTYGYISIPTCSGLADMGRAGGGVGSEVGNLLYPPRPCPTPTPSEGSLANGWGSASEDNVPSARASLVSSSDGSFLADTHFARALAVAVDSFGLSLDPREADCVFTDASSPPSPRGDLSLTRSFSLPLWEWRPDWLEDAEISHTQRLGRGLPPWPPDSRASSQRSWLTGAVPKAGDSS

[2] = molecular target: N-terminal FLAG-tagged human ROBO1 (pCI-FLAG-hROBO1-transfected HEK293 cells) (human, UniProt Q9Y6N7 58-1651)
[3] = molecular target: T2, human ROBO2 (pCI-hROBO2-transfected HEK293 cells) (human)
T2 chain: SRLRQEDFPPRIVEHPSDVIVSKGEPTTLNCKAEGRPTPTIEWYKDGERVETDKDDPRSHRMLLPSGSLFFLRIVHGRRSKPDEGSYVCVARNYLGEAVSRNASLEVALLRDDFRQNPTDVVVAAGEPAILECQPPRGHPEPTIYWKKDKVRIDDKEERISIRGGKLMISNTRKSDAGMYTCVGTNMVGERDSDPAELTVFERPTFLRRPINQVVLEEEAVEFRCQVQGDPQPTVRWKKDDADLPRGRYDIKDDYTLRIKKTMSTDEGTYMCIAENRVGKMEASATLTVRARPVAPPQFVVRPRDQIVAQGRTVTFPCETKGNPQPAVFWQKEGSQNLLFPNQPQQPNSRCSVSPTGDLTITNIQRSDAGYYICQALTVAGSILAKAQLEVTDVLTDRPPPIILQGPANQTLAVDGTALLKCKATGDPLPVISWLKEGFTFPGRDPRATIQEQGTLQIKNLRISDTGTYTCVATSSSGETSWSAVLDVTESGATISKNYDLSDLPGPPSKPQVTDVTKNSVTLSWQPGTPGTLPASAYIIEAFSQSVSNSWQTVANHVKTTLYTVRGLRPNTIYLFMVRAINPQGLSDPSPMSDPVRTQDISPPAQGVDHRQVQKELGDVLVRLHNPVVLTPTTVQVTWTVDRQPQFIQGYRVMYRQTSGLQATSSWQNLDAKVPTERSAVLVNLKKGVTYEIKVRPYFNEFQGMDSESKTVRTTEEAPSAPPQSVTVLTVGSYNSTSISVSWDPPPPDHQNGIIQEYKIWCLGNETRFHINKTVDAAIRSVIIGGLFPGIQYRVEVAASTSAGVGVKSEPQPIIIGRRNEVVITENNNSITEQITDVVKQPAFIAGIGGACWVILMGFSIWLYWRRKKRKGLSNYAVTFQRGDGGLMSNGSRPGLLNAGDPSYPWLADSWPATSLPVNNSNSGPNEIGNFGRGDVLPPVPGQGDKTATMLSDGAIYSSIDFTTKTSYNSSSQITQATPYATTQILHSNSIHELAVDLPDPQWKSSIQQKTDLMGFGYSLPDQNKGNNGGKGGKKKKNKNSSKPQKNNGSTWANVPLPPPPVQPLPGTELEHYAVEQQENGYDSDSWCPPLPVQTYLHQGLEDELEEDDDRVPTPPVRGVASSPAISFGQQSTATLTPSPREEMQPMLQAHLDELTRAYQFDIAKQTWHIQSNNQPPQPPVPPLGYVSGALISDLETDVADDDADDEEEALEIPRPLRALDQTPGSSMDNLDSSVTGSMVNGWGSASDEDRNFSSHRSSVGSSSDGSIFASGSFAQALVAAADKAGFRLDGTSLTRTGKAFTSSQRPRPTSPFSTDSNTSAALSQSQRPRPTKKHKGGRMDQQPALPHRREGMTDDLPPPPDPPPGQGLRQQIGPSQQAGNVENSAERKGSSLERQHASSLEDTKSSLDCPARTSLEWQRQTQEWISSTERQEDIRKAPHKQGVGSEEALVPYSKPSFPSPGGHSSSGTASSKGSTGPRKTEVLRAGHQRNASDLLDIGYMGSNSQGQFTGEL

Sequence of N-terminal FLAG-tagged human ROBO1 (pCI-FLAG-hROBO1-transfected HEK293 cells) (Q9Y6N7 other isoform, or with tags, fused parts or gaps): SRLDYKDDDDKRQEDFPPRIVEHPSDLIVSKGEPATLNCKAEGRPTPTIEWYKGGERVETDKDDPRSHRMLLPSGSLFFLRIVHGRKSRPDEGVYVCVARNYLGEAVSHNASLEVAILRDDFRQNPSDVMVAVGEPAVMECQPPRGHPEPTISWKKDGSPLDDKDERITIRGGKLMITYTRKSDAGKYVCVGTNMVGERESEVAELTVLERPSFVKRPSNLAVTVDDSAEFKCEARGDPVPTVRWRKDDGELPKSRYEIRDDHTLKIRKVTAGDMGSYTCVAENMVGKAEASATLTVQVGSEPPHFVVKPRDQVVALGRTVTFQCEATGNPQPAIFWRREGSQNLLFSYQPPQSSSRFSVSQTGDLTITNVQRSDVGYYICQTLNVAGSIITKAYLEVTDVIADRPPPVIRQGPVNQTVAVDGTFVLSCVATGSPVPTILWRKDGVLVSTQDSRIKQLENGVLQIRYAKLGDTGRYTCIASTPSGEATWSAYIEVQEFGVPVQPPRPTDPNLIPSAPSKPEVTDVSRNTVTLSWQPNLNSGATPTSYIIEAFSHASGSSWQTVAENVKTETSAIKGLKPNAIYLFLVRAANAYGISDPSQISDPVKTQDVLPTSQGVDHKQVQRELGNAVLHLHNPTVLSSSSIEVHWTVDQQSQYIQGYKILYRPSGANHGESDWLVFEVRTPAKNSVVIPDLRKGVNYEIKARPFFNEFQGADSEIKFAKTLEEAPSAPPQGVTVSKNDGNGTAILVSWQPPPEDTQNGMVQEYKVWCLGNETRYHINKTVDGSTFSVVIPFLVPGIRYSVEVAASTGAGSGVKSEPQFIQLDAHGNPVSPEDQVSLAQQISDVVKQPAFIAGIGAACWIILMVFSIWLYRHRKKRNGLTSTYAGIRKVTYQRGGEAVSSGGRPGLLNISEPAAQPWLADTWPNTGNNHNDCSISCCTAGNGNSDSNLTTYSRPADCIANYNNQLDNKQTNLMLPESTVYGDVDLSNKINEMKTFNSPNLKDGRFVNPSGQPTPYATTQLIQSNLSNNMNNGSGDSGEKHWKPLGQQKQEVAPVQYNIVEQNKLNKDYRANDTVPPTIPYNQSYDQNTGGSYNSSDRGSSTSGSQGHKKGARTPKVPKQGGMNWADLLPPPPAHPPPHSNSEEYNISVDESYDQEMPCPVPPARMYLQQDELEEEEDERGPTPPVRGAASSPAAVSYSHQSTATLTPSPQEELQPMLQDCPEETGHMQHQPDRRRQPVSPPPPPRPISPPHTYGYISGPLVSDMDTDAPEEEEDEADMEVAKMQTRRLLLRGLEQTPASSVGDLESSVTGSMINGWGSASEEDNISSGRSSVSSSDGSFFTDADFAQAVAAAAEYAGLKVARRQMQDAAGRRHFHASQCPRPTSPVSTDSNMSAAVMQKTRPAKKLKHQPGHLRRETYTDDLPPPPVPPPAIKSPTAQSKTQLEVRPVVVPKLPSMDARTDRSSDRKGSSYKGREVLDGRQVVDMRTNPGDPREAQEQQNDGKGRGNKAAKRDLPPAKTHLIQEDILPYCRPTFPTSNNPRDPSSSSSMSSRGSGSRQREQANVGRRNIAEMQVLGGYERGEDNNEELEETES

B1: humanized MAb1 antibody H-1140 (antibody, human IgG2, kappa, V domains shown)
VH: EVQLVESGGGLVQPGGSLRLSCAASGFTFSTYAMSWVRQAPGKGLEWVATISQGGTYTYYPDSVKGRFTISRDNAKNTLYLQMNSLRAEDTAVYYCARLIYYDYLDYWGQGTLVTVSS
VL: DIVMTQSPLSLPVTLGEPASISCRSSQSLENSNGNTYLNWYLQKPGQSPQLLIYRVSNRFSGVPDRFSGSGSGTDFTLKISRVEAEDVGVYYCLQVTHVPWTFGPGTKVDIKR
notes: Human IgG2 / kappa constant regions; also called hMAb1-H2-type heavy chain + hMAb1-L1-type light chain
binding result [1]: no binding (tested: 10 µg/mL (method of 4)-3-2))
binding result [2]: no binding (tested: 10 µg/mL (method of 4)-4-2))
binding result [3]: no binding (tested: 10 µg/mL (method of 4)-4-2))

Source: US20150098945A1 (Daiichi Sankyo, published 2015)
